How the values were obtained:
[1] = molecular target: Barley yellow dwarf virus-GPV readthrough protein (RTP), AcGFP1 fusion (Barley yellow dwarf virus-GPV); assay: co-IP; chemiluminescent Co-IP: pAcGFP1-bait and pProLabel-prey cotransfected into HEK293 cells, lysed after 48 h, anti-GFP polyclonal antibody and protein A/G agarose beads, ProLabel activity read as relative light units; negative control pAcGFP1-Lam/pProLabel-T
[2] = molecular target: Barley yellow dwarf virus-GPV coat protein (CP), AcGFP1 fusion (Barley yellow dwarf virus-GPV); assay: as above

| Substance | relative strength of the interaction against the negative control (times the negative control) [1] | relative strength of the interaction against the negative control (times the negative control) [2] |
| --- | --- | --- |
| complexin, ProLabel fusion (natural protein) | 5.6 | – |
| cytochrome P450 4g15, ProLabel fusion (natural protein) | 3.4 | – |
| cytochrome c oxidase polypeptide IV-like, ProLabel fusion (natural protein) | 4.2 | – |
| nascent polypeptide-associated complex subunit alpha, ProLabel fusion (natural protein) | 4.9 | 1.6 |
| pancreatic lipase-related protein, ProLabel fusion (natural protein) | 23 | 3 |
| tropomyosin, ProLabel fusion (natural protein) | 8.7 | – |
| twinstar, ProLabel fusion (natural protein) | 7.1 | – |
